Experimental data from patent US6858583B2, “Hemoglobin alpha chain peptide fragments useful for inhibiting stem cell proliferation” (Wellstat Therapeutics Corporation, priority 1993, dated 2005).

Tests used:
[1] = system: CFU-MIX; test: CFU-MIX cycling assay in vitro with Ara C; type: cell-based, mouse
Protocol: A similar assay can be performed in vitro, using the cycling status of CFU-MIX instead of CFU-S. The assay is performed as described above for the CFU-S assay except that cytosine arabinoside (Ara C, 30 mg/ml) is used as the cycle-specific toxic agent instead of high dose tritiated thymidine (see B. I. Lord in Haemopoiesis—A Practical Approach, N. G. Testa and G. Molineux (Eds.), IRL Press 1993; Pragnell et al. in Culture of Hematopoietic Cells, R. I. Freshney, I. B. Pragnell and M. G. Freshney (Eds.), Wiley Liss 1994) and a mouse strain with high endogenous cycling rates (Balb/c) is used instead of testosterone-treated BDF1 mice.
To test the activity of these sequences, the CFU-MIX cycling assay was conducted as described in Example 14. As shown in Tables 17-19, these peptides all are active in this assay.

[2] = system: HPP-CFC; test: High proliferative potential colony (HPP-CFC) assay after pre-incubation; type: cell-based, mouse; conditions: 200 ng/ml, 4 hours pre-incubation, day 14
Protocol: An in vitro assay for assessing murine reconstituting stem cells and early precursors is the high proliferative potential colony ([…]) assay; other related assays, e.g., CFU-A, CFU-GM, CFU-E, and CFU-GEMM, detect progressively restricted progenitor populations (M. Moore, Blood 177:2122-2128, 1991). […] BDF1 mice were treated with 5-fluorouracil (200 mg/kg i.p.) before their bone marrow was assayed for HPP-CFC numbers. Cells were washed by centrifugation and incubated at densities of 10^6 to 5×10^6 /ml in medium with either no added agent (Controls), pINPROL (25 ng/ml) or MIP-1α (200 ng/ml) for 4 hours. After incubation, cells were washed and plated in agar (0.3%) with 30% FCS and combined conditioned medium from 5637 and WEHI-3B cell lines (7.5% of each conditioned medium, as recommended by Sharp et al., 1991). Plating concentration was 5×10^4 cells/ml in 60 mm dishes.

B1: myoglobin: structurally related protein, inactive in the assay (protein, UniProt P02144 2-154, looked up)
Myoglobin: GLSDGEWQLVLNVWGKVEADIPGHGQEVLIRLFKGHPETLEKFDKFKHLKSEDEMKASEDLKKHGATVLTALGGILKKKGHHEAEIKPLAQSHATKHKIPVKYLEFISECIIQVLQSKHPGDFGADAQGAMNKALELFRKDMASNYKELGFQG
activity in the CFU-MIX cycling assay [1]: inactive

B2: macrophage inflammatory protein 1-alpha (protein, UniProt P10147 24-92, looked up)
C-C motif chemokine 3: SLAADTPTACCFSYTSRQIPQNFIADYFETSSQCSKPGVIFLTKRSRQVCADPSEEWVQKYVSDLELSA
% of Control (HPP-CFU) [2]: 101%
